Values of other authors in patent publication US12258594B2, “Cas proteins with reduced immunogenicity and methods of screening thereof” (THE BROAD INSTITUTE, INC., priority 2018, dated 2025).

Test system: target RNA
Settings: LbuCas13a alanine mutants

Molecule | crRNA-guided target RNA cleavage activity
Lys558: LbuCas13a with alanine substituted for Lys558 (protein, UniProt C7NBY4 1-1159, looked up, variant K558A) CRISPR-associated …: MKVTKVGGISHKKYTSEGRLVKSESEENRTDERLSALLNMRLDMYIKNPSSTETKENQKRIGKLKKFFSNKMVYLKDNTLSLKNGKKENIDREYSETDILESDVRDKKNFAVLKKIYLNENVNSEELEVFRNDIKKKLNKINSLKYSFEKNKANYQKINENNIEKVEGKSKRNIIYDYYRESAKRDAYVSNVKEAFDKLYKEEDIAKLVLEIENLTKLEKYKIREFYHEIIGRKNDKENFAKIIYEEIQNVNNMKELIEKVPDMSELKKSQVFYKYYLDKEELNDKNIKYAFCHFVEIEMSQLLKNYVYKRLSNISNDKIKRIFEYQNLKKLIENKLLNKLDTYVRNCGKYNYYLQDGEIATSDFIARNRQNEAFLRNIIGVSSVAYFSLRNILETENENDITGRMRGKTVKNNKGEEKYVSGEVDKIYNENKKNEVKENLKMFYSYDFNMDNKNEIEDFFANIDEAISSIRHGIVHFNLELEGKDIFAFKNIAPSEISKKMFQNEINEKKLKLKIFRQLNSANVFRYLEKYKILNYLKRTRFEFVNKNIPFVPSFTALYSRIDDLKNSLGIYWKTPKTNDDNKTKEIIDAQIYLLKNIYYGEFLNYFMSNNGNFFEISKEIIELNKNDKRNLKTGFYKLQKFEDIQEKIPKEYLANIQSLYMINAGNQDEEEKDTYIDFIQKIFLKGFMTYLANNGRLSLIYIGSDEETNTSLAEKKQEFDKFLKKYEQNNNIKIPYEINEFLREIKLGNILKYTERLNMFYLILKLLNHKELTNLKGSLEKYQSANKEEAFSDQLELINLLNLDNNRVTEDFELEADEIGKFLDFNGNKVKDNKELKKFDTNKIYFDGENIIKHRAFYNIKKYGMLNLLEKIADKAGYKISIEELKKYSNKKNEIEKNHKMQENLHRKYARPRKDEKFTDEDYESYKQAIENIEEYTHLKNKVEFNELNLLQGLLLRILHRLVGYTSIWERDLRFRLKGEFPENQYIEEIFNFENKKNVKYKGGQIVEKYIKFYKELHQNDEVKINKYSSANIKVLKQEKKDLYIRNYIAHFNYIPHAEISLLEVLENLRKLLSYDRKLKNAVMKSVVDILKEYGFVATFKIGADKKIGIQTLESEKIVHLKNLKKKKLMTDRNSEELCKLVKIMFEYKMEEKKSEN | dramatically reduced crRNA-guided RNA cleavage
Tyr601Ala: Tyr601Ala mutant of LbuCas13a (protein, UniProt C7NBY4 1-1159, looked up, variant Y601A) CRISPR-associated …: MKVTKVGGISHKKYTSEGRLVKSESEENRTDERLSALLNMRLDMYIKNPSSTETKENQKRIGKLKKFFSNKMVYLKDNTLSLKNGKKENIDREYSETDILESDVRDKKNFAVLKKIYLNENVNSEELEVFRNDIKKKLNKINSLKYSFEKNKANYQKINENNIEKVEGKSKRNIIYDYYRESAKRDAYVSNVKEAFDKLYKEEDIAKLVLEIENLTKLEKYKIREFYHEIIGRKNDKENFAKIIYEEIQNVNNMKELIEKVPDMSELKKSQVFYKYYLDKEELNDKNIKYAFCHFVEIEMSQLLKNYVYKRLSNISNDKIKRIFEYQNLKKLIENKLLNKLDTYVRNCGKYNYYLQDGEIATSDFIARNRQNEAFLRNIIGVSSVAYFSLRNILETENENDITGRMRGKTVKNNKGEEKYVSGEVDKIYNENKKNEVKENLKMFYSYDFNMDNKNEIEDFFANIDEAISSIRHGIVHFNLELEGKDIFAFKNIAPSEISKKMFQNEINEKKLKLKIFRQLNSANVFRYLEKYKILNYLKRTRFEFVNKNIPFVPSFTKLYSRIDDLKNSLGIYWKTPKTNDDNKTKEIIDAQIYLLKNIYAGEFLNYFMSNNGNFFEISKEIIELNKNDKRNLKTGFYKLQKFEDIQEKIPKEYLANIQSLYMINAGNQDEEEKDTYIDFIQKIFLKGFMTYLANNGRLSLIYIGSDEETNTSLAEKKQEFDKFLKKYEQNNNIKIPYEINEFLREIKLGNILKYTERLNMFYLILKLLNHKELTNLKGSLEKYQSANKEEAFSDQLELINLLNLDNNRVTEDFELEADEIGKFLDFNGNKVKDNKELKKFDTNKIYFDGENIIKHRAFYNIKKYGMLNLLEKIADKAGYKISIEELKKYSNKKNEIEKNHKMQENLHRKYARPRKDEKFTDEDYESYKQAIENIEEYTHLKNKVEFNELNLLQGLLLRILHRLVGYTSIWERDLRFRLKGEFPENQYIEEIFNFENKKNVKYKGGQIVEKYIKFYKELHQNDEVKINKYSSANIKVLKQEKKDLYIRNYIAHFNYIPHAEISLLEVLENLRKLLSYDRKLKNAVMKSVVDILKEYGFVATFKIGADKKIGIQTLESEKIVHLKNLKKKKLMTDRNSEELCKLVKIMFEYKMEEKKSEN | reduced target RNA cleavage activity
Arg809Ala: Arg809Ala mutant of LbuCas13a (protein, UniProt C7NBY4 1-1159, looked up, variant R809A) CRISPR-associated …: MKVTKVGGISHKKYTSEGRLVKSESEENRTDERLSALLNMRLDMYIKNPSSTETKENQKRIGKLKKFFSNKMVYLKDNTLSLKNGKKENIDREYSETDILESDVRDKKNFAVLKKIYLNENVNSEELEVFRNDIKKKLNKINSLKYSFEKNKANYQKINENNIEKVEGKSKRNIIYDYYRESAKRDAYVSNVKEAFDKLYKEEDIAKLVLEIENLTKLEKYKIREFYHEIIGRKNDKENFAKIIYEEIQNVNNMKELIEKVPDMSELKKSQVFYKYYLDKEELNDKNIKYAFCHFVEIEMSQLLKNYVYKRLSNISNDKIKRIFEYQNLKKLIENKLLNKLDTYVRNCGKYNYYLQDGEIATSDFIARNRQNEAFLRNIIGVSSVAYFSLRNILETENENDITGRMRGKTVKNNKGEEKYVSGEVDKIYNENKKNEVKENLKMFYSYDFNMDNKNEIEDFFANIDEAISSIRHGIVHFNLELEGKDIFAFKNIAPSEISKKMFQNEINEKKLKLKIFRQLNSANVFRYLEKYKILNYLKRTRFEFVNKNIPFVPSFTKLYSRIDDLKNSLGIYWKTPKTNDDNKTKEIIDAQIYLLKNIYYGEFLNYFMSNNGNFFEISKEIIELNKNDKRNLKTGFYKLQKFEDIQEKIPKEYLANIQSLYMINAGNQDEEEKDTYIDFIQKIFLKGFMTYLANNGRLSLIYIGSDEETNTSLAEKKQEFDKFLKKYEQNNNIKIPYEINEFLREIKLGNILKYTERLNMFYLILKLLNHKELTNLKGSLEKYQSANKEEAFSDQLELINLLNLDNNAVTEDFELEADEIGKFLDFNGNKVKDNKELKKFDTNKIYFDGENIIKHRAFYNIKKYGMLNLLEKIADKAGYKISIEELKKYSNKKNEIEKNHKMQENLHRKYARPRKDEKFTDEDYESYKQAIENIEEYTHLKNKVEFNELNLLQGLLLRILHRLVGYTSIWERDLRFRLKGEFPENQYIEEIFNFENKKNVKYKGGQIVEKYIKFYKELHQNDEVKINKYSSANIKVLKQEKKDLYIRNYIAHFNYIPHAEISLLEVLENLRKLLSYDRKLKNAVMKSVVDILKEYGFVATFKIGADKKIGIQTLESEKIVHLKNLKKKKLMTDRNSEELCKLVKIMFEYKMEEKKSEN | reduced target RNA cleavage activity
Tyr938Ala: Tyr938Ala mutant of LbuCas13a (protein, UniProt C7NBY4 1-1159, looked up, variant Y938A) CRISPR-associated …: MKVTKVGGISHKKYTSEGRLVKSESEENRTDERLSALLNMRLDMYIKNPSSTETKENQKRIGKLKKFFSNKMVYLKDNTLSLKNGKKENIDREYSETDILESDVRDKKNFAVLKKIYLNENVNSEELEVFRNDIKKKLNKINSLKYSFEKNKANYQKINENNIEKVEGKSKRNIIYDYYRESAKRDAYVSNVKEAFDKLYKEEDIAKLVLEIENLTKLEKYKIREFYHEIIGRKNDKENFAKIIYEEIQNVNNMKELIEKVPDMSELKKSQVFYKYYLDKEELNDKNIKYAFCHFVEIEMSQLLKNYVYKRLSNISNDKIKRIFEYQNLKKLIENKLLNKLDTYVRNCGKYNYYLQDGEIATSDFIARNRQNEAFLRNIIGVSSVAYFSLRNILETENENDITGRMRGKTVKNNKGEEKYVSGEVDKIYNENKKNEVKENLKMFYSYDFNMDNKNEIEDFFANIDEAISSIRHGIVHFNLELEGKDIFAFKNIAPSEISKKMFQNEINEKKLKLKIFRQLNSANVFRYLEKYKILNYLKRTRFEFVNKNIPFVPSFTKLYSRIDDLKNSLGIYWKTPKTNDDNKTKEIIDAQIYLLKNIYYGEFLNYFMSNNGNFFEISKEIIELNKNDKRNLKTGFYKLQKFEDIQEKIPKEYLANIQSLYMINAGNQDEEEKDTYIDFIQKIFLKGFMTYLANNGRLSLIYIGSDEETNTSLAEKKQEFDKFLKKYEQNNNIKIPYEINEFLREIKLGNILKYTERLNMFYLILKLLNHKELTNLKGSLEKYQSANKEEAFSDQLELINLLNLDNNRVTEDFELEADEIGKFLDFNGNKVKDNKELKKFDTNKIYFDGENIIKHRAFYNIKKYGMLNLLEKIADKAGYKISIEELKKYSNKKNEIEKNHKMQENLHRKYARPRKDEKFTDEDYESYKQAIENIEEATHLKNKVEFNELNLLQGLLLRILHRLVGYTSIWERDLRFRLKGEFPENQYIEEIFNFENKKNVKYKGGQIVEKYIKFYKELHQNDEVKINKYSSANIKVLKQEKKDLYIRNYIAHFNYIPHAEISLLEVLENLRKLLSYDRKLKNAVMKSVVDILKEYGFVATFKIGADKKIGIQTLESEKIVHLKNLKKKKLMTDRNSEELCKLVKIMFEYKMEEKKSEN | reduced target RNA cleavage activity
Lys942Ala: Lys942Ala mutant of LbuCas13a (protein, UniProt C7NBY4 1-1159, looked up, variant K942A) CRISPR-associated …: MKVTKVGGISHKKYTSEGRLVKSESEENRTDERLSALLNMRLDMYIKNPSSTETKENQKRIGKLKKFFSNKMVYLKDNTLSLKNGKKENIDREYSETDILESDVRDKKNFAVLKKIYLNENVNSEELEVFRNDIKKKLNKINSLKYSFEKNKANYQKINENNIEKVEGKSKRNIIYDYYRESAKRDAYVSNVKEAFDKLYKEEDIAKLVLEIENLTKLEKYKIREFYHEIIGRKNDKENFAKIIYEEIQNVNNMKELIEKVPDMSELKKSQVFYKYYLDKEELNDKNIKYAFCHFVEIEMSQLLKNYVYKRLSNISNDKIKRIFEYQNLKKLIENKLLNKLDTYVRNCGKYNYYLQDGEIATSDFIARNRQNEAFLRNIIGVSSVAYFSLRNILETENENDITGRMRGKTVKNNKGEEKYVSGEVDKIYNENKKNEVKENLKMFYSYDFNMDNKNEIEDFFANIDEAISSIRHGIVHFNLELEGKDIFAFKNIAPSEISKKMFQNEINEKKLKLKIFRQLNSANVFRYLEKYKILNYLKRTRFEFVNKNIPFVPSFTKLYSRIDDLKNSLGIYWKTPKTNDDNKTKEIIDAQIYLLKNIYYGEFLNYFMSNNGNFFEISKEIIELNKNDKRNLKTGFYKLQKFEDIQEKIPKEYLANIQSLYMINAGNQDEEEKDTYIDFIQKIFLKGFMTYLANNGRLSLIYIGSDEETNTSLAEKKQEFDKFLKKYEQNNNIKIPYEINEFLREIKLGNILKYTERLNMFYLILKLLNHKELTNLKGSLEKYQSANKEEAFSDQLELINLLNLDNNRVTEDFELEADEIGKFLDFNGNKVKDNKELKKFDTNKIYFDGENIIKHRAFYNIKKYGMLNLLEKIADKAGYKISIEELKKYSNKKNEIEKNHKMQENLHRKYARPRKDEKFTDEDYESYKQAIENIEEYTHLANKVEFNELNLLQGLLLRILHRLVGYTSIWERDLRFRLKGEFPENQYIEEIFNFENKKNVKYKGGQIVEKYIKFYKELHQNDEVKINKYSSANIKVLKQEKKDLYIRNYIAHFNYIPHAEISLLEVLENLRKLLSYDRKLKNAVMKSVVDILKEYGFVATFKIGADKKIGIQTLESEKIVHLKNLKKKKLMTDRNSEELCKLVKIMFEYKMEEKKSEN | reduced target RNA cleavage activity
